Test results: patent US20250313631A1 (HUMMINGBIRD BIOSCIENCE PTE, published 2025)
Numbering of substitutions follows the chain as printed. Names may count otherwise. Blank lines part the entries; values can stand above or below the binder they belong to.

Key:
[1] = molecular target: T1, recombinant rat VISTA (His-tagged) (rat, UniProt A0ABK0L5H3 33-192); assay: ELISA, plate coated with rat VISTA
T1 sequence: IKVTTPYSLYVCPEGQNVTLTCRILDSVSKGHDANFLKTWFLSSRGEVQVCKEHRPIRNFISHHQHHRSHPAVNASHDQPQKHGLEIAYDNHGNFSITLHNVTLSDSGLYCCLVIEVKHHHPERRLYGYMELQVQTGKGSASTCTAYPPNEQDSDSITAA

[2] = molecular target: T2, recombinant cynomolgus macaque VISTA (His-tagged) (cynomolgus macaque, UniProt A0A7N9IB00 33-194); assay: ELISA, plate coated with cyno VISTA
T2 construct: also called cyno VISTA; cynomolgus monkey VISTA

[3] = molecular target: T3, recombinant human VISTA (His-tagged) (human, UniProt Q9H7M9 33-194); assay: ELISA, plate coated with human VISTA
T3 construct: bought soluble protein (Sino Biological); also called hVISTA; human VISTA polypeptide

[4] = molecular target: T4, recombinant mouse VISTA (His-tagged) (mouse, UniProt Q9D659 33-191); assay: ELISA, plate coated with mouse VISTA
T4 construct: also called murine VISTA; mVISTA
T4 sequence (looked up): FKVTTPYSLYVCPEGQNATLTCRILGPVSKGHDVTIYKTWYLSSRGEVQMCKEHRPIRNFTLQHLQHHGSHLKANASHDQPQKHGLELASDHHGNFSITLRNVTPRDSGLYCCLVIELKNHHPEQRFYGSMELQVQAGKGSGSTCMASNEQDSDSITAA

[5] = molecular target: T3, recombinant human VISTA (His-tagged); assay: BLI (Octet), 1:1 global fit, His-tagged human VISTA captured
[6] = molecular target: T3, recombinant human VISTA (His-tagged); assay: ELISA, plate coated with human VISTA; unit nM from the legend paragraph 697
[7] = molecular target: T4, recombinant mouse VISTA (His-tagged); assay: ELISA, plate coated with mouse VISTA; unit nM from the legend paragraph 697
[8] = molecular target: T3, recombinant human VISTA (His-tagged); assay: antigen-binding ELISA; HMBD-002 10 mg/mL in F1, day 0
[9] = molecular target: T3, recombinant human VISTA (His-tagged); assay: antigen-binding ELISA; HMBD-002 in F1, day 10 at 40°C
[10] = molecular target: T3, recombinant human VISTA (His-tagged); assay: antigen-binding ELISA; HMBD-002 in F2, day 10 at 40°C
[11] = molecular target: T3, recombinant human VISTA (His-tagged); assay: antigen-binding ELISA; HMBD-002 in F3, day 20 at 40°C
[12] = molecular target: T3, recombinant human VISTA (His-tagged); assay: antigen-binding ELISA; HMBD-002 in F4, day 20 at 40°C
[13] = molecular target: human PD-1 (human, UniProt Q15116 25-167); assay: ELISA, plate coated with human PD-1, antibody titrated
Description: 384-well plates were coated with 1 μg/ml of target antigen diluted in PBS for 16 hrs at 4° C. […] After washing, plates were developed with colorimetric detection substrate 3,3′,5,5′-tetramethylbenzidine (Turbo-TMB; Pierce) for 10 min.

[14] = molecular target: T3, recombinant human VISTA (His-tagged); assay: BLI (Octet), 1:1 global fit, human VISTA captured
Description: (§1) Finally, the biosensors were incubated for 120 sec in PBS pH 7.2 to obtain the dissociation curves. Kinetic and affinity constants were calculated by global fitting of the association and dissociation data to a 1:1 binding model.

[15] = molecular target: T4, recombinant mouse VISTA (His-tagged); assay: BLI (Octet), 1:1 global fit, mouse VISTA captured
Description: All measurements were performed at 25° C. with agitation at 1000 rpm. […] Sensograms were referenced for buffer effects and then fitted using the Octet QK384 user software (Pall ForteBio, USA).

[16] = molecular target: T3, recombinant human VISTA (His-tagged); assay: BLI (Octet), 1:1 global fit, His-tagged human VISTA captured; remark: listed apart in the source
[17] = molecular target: T4, recombinant mouse VISTA (His-tagged); assay: BLI (Octet), 1:1 global fit, His-tagged mouse VISTA captured
[18] = molecular target: T4, recombinant mouse VISTA (His-tagged); assay: as above; remark: listed apart in the source
[19] = molecular target: T3, recombinant human VISTA (His-tagged); assay: ELISA, plate coated with human VISTA; unit nM from the legend paragraph 698
[20] = molecular target: T4, recombinant mouse VISTA (His-tagged); assay: ELISA, plate coated with mouse VISTA; unit nM from the legend paragraph 698
[21] = molecular target: T3, recombinant human VISTA (His-tagged); assay: ELISA, plate coated with human VISTA; unit nM from the legend paragraph 699
[22] = molecular target: T4, recombinant mouse VISTA (His-tagged); assay: ELISA, plate coated with mouse VISTA; unit nM from the legend paragraph 699
[23] = molecular target: T5, human PD-L1 (human, UniProt Q9NZQ7 19-239); assay: BLI (Octet), His-tagged human PD-L1 on anti-Penta-HIS biosensor, antibody 500-15.6 nM
T5 construct: captured through a His tag in the BLI experiments; also called hPD-L1; B7H1/PDL-1
T5 sequence (Q9NZQ7 19-239 limits assumed): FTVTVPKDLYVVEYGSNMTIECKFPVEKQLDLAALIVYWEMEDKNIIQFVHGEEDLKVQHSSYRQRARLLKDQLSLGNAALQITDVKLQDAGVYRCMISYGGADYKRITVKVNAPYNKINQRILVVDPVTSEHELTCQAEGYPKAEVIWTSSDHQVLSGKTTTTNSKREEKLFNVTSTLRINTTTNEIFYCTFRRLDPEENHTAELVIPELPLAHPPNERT
Description: as §1

human PD-1, sequence (Q15116 25-167 limits assumed): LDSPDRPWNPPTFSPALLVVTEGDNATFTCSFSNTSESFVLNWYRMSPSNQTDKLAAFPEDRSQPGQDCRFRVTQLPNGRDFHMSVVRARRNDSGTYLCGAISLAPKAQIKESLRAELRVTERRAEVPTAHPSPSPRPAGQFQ

B1: anti-VISTA clone 4M2-C12 IgG1 (antibody)
heavy: not shown
light: DIVITQTPAILSTSPGEKVTMTCRASSSVGYIHWYQQKPGSSPKPWIYATSNLASGVPARFSGSGSGTSNSLTITRVEAEDAATYYCQQWSSYPPITFGGGTKLEVKRTVAAPSVFIFPPSDEQLKSGTASVVCLLNNFYPREAKVQWKVDNALQSGNSQESVTEQDSKDSTYSLSSTLTLSKADYEKHKVYACEVTHQGLSSPVTKSFNRGEC
notes: mouse variable regions on human IgG1/kappa constant regions; also called V4; V4pr
EC50 [1]: 1.25 nM | EC50 [2]: 0.0472 nM | EC50 [3]: 0.0319 nM | EC50 [4]: 0.387 nM | Kd [5]: < 0.001 nM | koff [5]: < 1e-07 s⁻¹ | kon [5]: 128000 M⁻¹ s⁻¹ | EC50 [6]: 0.036 nM | EC50 [7]: 0.43 nM

B2: V4-C26 hIgG4 (antibody)
heavy: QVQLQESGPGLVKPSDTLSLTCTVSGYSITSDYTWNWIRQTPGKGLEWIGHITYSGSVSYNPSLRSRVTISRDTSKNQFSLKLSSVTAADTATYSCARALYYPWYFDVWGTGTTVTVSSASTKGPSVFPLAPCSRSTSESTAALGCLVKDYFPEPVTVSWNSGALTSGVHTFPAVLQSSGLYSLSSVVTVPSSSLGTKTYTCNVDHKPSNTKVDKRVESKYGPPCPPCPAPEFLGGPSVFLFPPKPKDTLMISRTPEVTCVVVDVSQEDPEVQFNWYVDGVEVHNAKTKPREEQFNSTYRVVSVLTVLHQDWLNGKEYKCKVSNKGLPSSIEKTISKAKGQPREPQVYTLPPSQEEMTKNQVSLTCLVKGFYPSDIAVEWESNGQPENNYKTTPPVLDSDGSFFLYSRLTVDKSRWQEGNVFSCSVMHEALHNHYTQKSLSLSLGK
light: EIVLTQSPATLSLSPGERATLSCRASSSVGYIHWYQQKPGQAPRPIIYTTSNRATGIPARFSGSGSGTDNTLTISSLEPEDSAVYYCQQWSSYPPITFGGGTKLEVKRTVAAPSVFIFPPSDEQLKSGTASVVCLLNNFYPREAKVQWKVDNALQSGNSQESVTEQDSKDSTYSLSSTLTLSKADYEKHKVYACEVTHQGLSSPVTKSFNRGEC
notes: human IgG4 (S228P)/kappa format; also called HMBD-002; HMBD-002-V4C26
EC50 [8]: 0.04 nM | EC50 [9]: 0.0306 nM | EC50 [10]: 0.0322 nM | EC50 [11]: 0.0189 nM | EC50 [12]: 0.0205 nM | binding result [13]: no binding (tested: about 3e-8 M)

B3: anti-VISTA clone V4-C24 IgG1 (antibody, V domains shown)
VH: QVQLQESGPGLVKPSDTLSLTCTVSGYSITSDYTWNWIRQTPGKGLEWIGHITYSGSVSYNPSLRSRVTISRDTSKNQFSLKLSSVTAADTATYSCARALYYPWYFDVWGTGTTVTVSS
VL: EIVLTQSPATLSLSPGERATLSCRASSSVGYIHWYQQKPGQAPRPLIYTTSYRATGIPARFSGSGSGTDNTLTISSLEPEDSAVYYCQQWSSYPPITFGGGTKLEVKR
EC50 [1]: 0.201 nM | EC50 [2]: 0.0385 nM | EC50 [3]: 0.0268 nM | EC50 [4]: 0.0304 nM | Kd [14]: < 0.001 nM | koff [14]: < 1e-07 s⁻¹ | kon [14]: 373000 M⁻¹ s⁻¹ | Kd [15]: 0.202 nM | koff [15]: 7.6e-05 s⁻¹ | kon [15]: 378000 M⁻¹ s⁻¹ | Kd [16]: < 0.001 nM | koff [16]: < 1e-07 s⁻¹ | kon [16]: 384000 M⁻¹ s⁻¹ | Kd [17]: < 0.001 nM | koff [17]: < 1e-07 s⁻¹ | kon [17]: 401000 M⁻¹ s⁻¹ | Kd [18]: < 0.001 nM | koff [18]: < 1e-07 s⁻¹ | kon [18]: 462000 M⁻¹ s⁻¹ | EC50 [6]: 0.01 nM | EC50 [7]: 0.017 nM | EC50 [19]: 0.032 nM | EC50 [20]: 0.042 nM | EC50 [21]: 0.073 nM | EC50 [22]: 0.116 nM | binding result [23]: no binding (tested: 500 nM)

Further lines, results first:

EC50 [1]: 0.196 nM | EC50 [2]: 0.0324 nM | EC50 [3]: 0.0295 nM | EC50 [4]: 0.0374 nM | Kd [14]: 0.119 nM | koff [14]: 6.1e-05 s⁻¹ | kon [14]: 511000 M⁻¹ s⁻¹ | Kd [15]: 0.395 nM | koff [15]: 0.00016 s⁻¹ | kon [15]: 392000 M⁻¹ s⁻¹ | Kd [16]: < 0.001 nM | koff [16]: < 1e-07 s⁻¹ | kon [16]: 465000 M⁻¹ s⁻¹ | Kd [17]: < 0.001 nM | koff [17]: < 1e-07 s⁻¹ | kon [17]: 426000 M⁻¹ s⁻¹ | Kd [18]: 0.137 nM | koff [18]: 5.5e-05 s⁻¹ | kon [18]: 398000 M⁻¹ s⁻¹ | EC50 [6]: < 0.0007 nM | EC50 [7]: 0.0023 nM | EC50 [19]: 0.037 nM | EC50 [20]: 0.047 nM | EC50 [21]: 0.047 nM | EC50 [22]: 0.073 nM | binding result [23]: no binding (tested: 500 nM)
B4: anti-VISTA clone V4-C27 IgG1 (antibody, V domains shown)
VH: B3 VH
VL: B3 VL with T49A, S51Y, Y52N

EC50 [1]: 0.16 nM | EC50 [2]: 0.0356 nM | EC50 [3]: 0.0241 nM | EC50 [4]: 0.0325 nM | Kd [14]: 0.241 nM | koff [14]: 9.8e-05 s⁻¹ | kon [14]: 407000 M⁻¹ s⁻¹ | Kd [15]: 0.53 nM | koff [15]: 0.0002 s⁻¹ | kon [15]: 382000 M⁻¹ s⁻¹ | Kd [16]: < 0.001 nM | koff [16]: < 1e-07 s⁻¹ | kon [16]: 404000 M⁻¹ s⁻¹ | Kd [17]: < 0.001 nM | koff [17]: < 1e-07 s⁻¹ | kon [17]: 403000 M⁻¹ s⁻¹ | Kd [18]: 0.183 nM | koff [18]: 7.6e-05 s⁻¹ | kon [18]: 413000 M⁻¹ s⁻¹ | EC50 [6]: 0.0034 nM | EC50 [7]: 0.0089 nM | EC50 [19]: 0.038 nM | EC50 [20]: 0.058 nM | EC50 [21]: 0.064 nM | EC50 [22]: 0.086 nM | binding result [23]: no binding (tested: 500 nM)
B5: anti-VISTA clone V4-C26 IgG1 (antibody)
heavy: not shown
light: B2 light
